Laboratory results as given in article PMC12403835.

Experiments:
[1] = biological target: C1q complement component (UniProt P02745); experiment: BLI
[2] = biological target: FcgR3a(F), biotinylated (UniProt P08637); experiment: SPR
[3] = biological target: FcgR3a(V), biotinylated (UniProt P08637); experiment: SPR
[4] = biological target: FcgR3b Biotinylated (UniProt O75015); experiment: SPR
Chain of UniProt O75015 (O75015 17-200): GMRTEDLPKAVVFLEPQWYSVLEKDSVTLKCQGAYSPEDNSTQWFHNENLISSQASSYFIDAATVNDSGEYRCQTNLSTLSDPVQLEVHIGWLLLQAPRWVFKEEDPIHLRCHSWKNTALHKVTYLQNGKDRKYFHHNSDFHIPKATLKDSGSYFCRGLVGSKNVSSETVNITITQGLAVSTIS

Chain of UniProt P02745 (P02745 23-245, chain 1 of 3): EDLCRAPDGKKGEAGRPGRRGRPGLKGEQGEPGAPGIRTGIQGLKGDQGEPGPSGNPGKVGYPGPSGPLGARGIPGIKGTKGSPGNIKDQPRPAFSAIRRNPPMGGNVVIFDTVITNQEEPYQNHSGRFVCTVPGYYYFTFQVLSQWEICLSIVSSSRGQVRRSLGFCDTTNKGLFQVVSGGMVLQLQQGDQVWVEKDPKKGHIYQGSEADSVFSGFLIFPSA
Chain of UniProt P02745 (P02746 28-253, chain 2 of 3, further chain): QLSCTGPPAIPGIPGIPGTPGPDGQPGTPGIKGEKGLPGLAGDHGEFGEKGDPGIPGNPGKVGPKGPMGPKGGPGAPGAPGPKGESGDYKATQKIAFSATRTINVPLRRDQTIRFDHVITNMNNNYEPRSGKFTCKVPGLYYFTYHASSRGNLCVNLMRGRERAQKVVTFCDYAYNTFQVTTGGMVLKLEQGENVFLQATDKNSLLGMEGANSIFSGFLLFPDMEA
Chain of UniProt P02745 (P02747 29-245, chain 3 of 3, further chain): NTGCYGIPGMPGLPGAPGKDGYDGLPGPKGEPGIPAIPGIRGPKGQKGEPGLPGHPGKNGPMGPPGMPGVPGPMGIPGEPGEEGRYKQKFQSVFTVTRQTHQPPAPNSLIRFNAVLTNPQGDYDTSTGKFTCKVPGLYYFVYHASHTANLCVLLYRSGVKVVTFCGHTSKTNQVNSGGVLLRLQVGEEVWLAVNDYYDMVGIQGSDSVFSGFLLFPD

Substance | Kd [1] | Kd [2] | Kd [3] | Kd [4]
CIS43 wild-type mAb (IgG1m3) | 1.8 nM | 2510 nM | 590 nM | 5240 nM
CIS43-LS-AFUC (afucosylated CIS43-LS) | 1.7 nM | 160 nM | – | 330 nM
CIS43-LS-GAALIE (IgG1m3-LS-GAALIE) | – | – | – | 1020 nM

Continued by falling Kd [4], values first:

Kd [1] | Kd [2] | Kd [3] | Kd [4] | Substance
– | 4620 nM | 1270 nM | 17400 nM | CIS43-LS-G236A (IgG1m3-LS-GA)
1.5 nM | 2780 nM | 590 nM | 5010 nM | CIS43-LS (IgG1m3-LS)
